From patent US20220213176A1 (SHANGHAITECH UNIVERSITY, published 2022)

Target: SARS-CoV-2 spike receptor binding domain, wild-type (S-RBD) (SARS-CoV-2, UniProt P0DTC2 319-541)
Assay: BLI (Octet RED96), biotin S-RBD on SA sensor, 1:1 fit

B1: S-E6 trimer (T4F) (other)
heavy: QVTLRESGPGLVKPSETLSLTCAVSGGSLSSVNYYWSWIRQHPGKGLEWIGYIYYSGSTNYNPSLKSRVTMSLDTSKNQFSLKLSSVTAADTAVYYCATPGAIMGALHIWGQGTLVTVSSASTKGPSVFPLAPSSKSTSGGTAALGCLVKDYFPEPVTVSWNSGALTSGVHTFPAVLQSSGLYSLSSVVTVPSSSLGTQTYICNVNHKPSNTKVDKKVEPPKSGGGGSGGGGSGGGGSPGSGYIPEAPRDGQAYVRKDGEWVLLSTFLGHHHHHH
light: QAVLTQPSSASSTPGQRVIISCSGSSSNIGSNTVSWYQQVPGAAPKLLIYFDYRRPSGVPDRFSGTRSGTSASLGISGLQSEDEADYYCAAWDDSLSAWVFGRGTKLTVLGGLGGLVDYKGQPKAAPSVTLFPPSSEELQANKATLVCLISDFYPGAVTVAWKADSSPVKAGVETTTPSKQSNNKYAASSYLSLTPEQWKSHRSYSCQVTHEGSTVEKTVAPTECS
notes: also called trimer S-E6; trimeric S-E6
Kd: 10.1 pM
